Two substances from PMC6307458, “Inhibition of Inflammatory Changes in Human Myometrial Cells by Cell Penetrating Peptide and Small Molecule Inhibitors of NFκB” (Frontiers in Immunology, 2018) can be followed below.

The test system of this series is human myometrial cells. The series is described as follows: Live cell confocal microscopy, delivery of rhodamine cargo. The note with it: live cell spinning disk confocal microscopy; primary human myometrial cells; 1, 3 and 10 μM; 60 min; 37°C, 5% CO2; serum-reduced media (0.1% FCS); 3 independent experiments.

Method: Cells were washed in phosphate buffered saline and changed to serum-reduced media (0.1%FCS) for 18–24 h ([39]).
Initial images were collected to assess baseline cellular auto-fluorescence prior to the addition of varying concentrations of fluorophore-CPP/fluorophore- CPP-Cargo/fluorophore-control peptide combinations (see Table 1) that were ready made up in serum-reduced cell media. Further images were captured 60 min following application.
To make a thorough assessment of fluorescent uptake throughout whole cells, all images were captured as a series of slices in the Z plane (range 3–10 slices per area selected, each slice 0.54 μm apart) with the 40x objective using live cell spinning disk confocal microscopy (Andor Revolution XD coupled to an Olympus IX-81 inverted microscope; Andor Belfast UK). All images were digitally recorded with IQ2 software (Andor, Belfast, UK).

On to “Rhodamine-RQIKIWFQNRRMKW-Aca- TALDWSWLQTE [rhodamine Pen(43-56)–NBD]”, for which the “delivery of rhodamine fluorophore internal to the cells” value is recorded as “demonstrated ability to enter myometrial cells”.
Regarding “Rhodamine–RQIKIWFQNRRMKWKK [Penetratin, conjugated to rhodamine]”, the “delivery of rhodamine fluorophore internal to the cells” value is recorded as “able to enter uterine cells”.
